This note sets out measurements from patent publication US20210107983A1 (Boehringer Ingelheim, published 2021).

Assay [1] deals with T1, trypsin inhibitor from Glycine max soybean (Glycine max (soybean)).
T1 construct: unrelated negatively charged protein, amine-coupled to the chip
Description: SPR, 1 µM binder over immobilized trypsin inhibitor. As for the experimental part:
(§1) The experiment was performed on a Biacore® T200 SPR system (GE Healthcare Life Sciences). The dilution, surface preparation, and binding experiments were performed at 25° C. in 1×HBS-EP buffer prepared from 10×HBS-EP. The flow rate for both the immobilization protocol and binding experiment was at 5 μL/min.
(§2) To prepare the surface for the non-specific binding experiment, chicken egg white lysozyme and trypsin inhibitor from Glycine max soybean were coupled manually to a Biacore® series S CM5 sensor chip (GE Healthcare sciences) with the surface density of 3000-5000 RU using the amine coupling kit according to the manufacture instructions. Samples were prepared at 1 μM in 1×HBS-EP buffer. The samples were injected over activated surfaces with a 10 min association and 15 min dissociation. The data was collected using Biacore® T200 Control Software version 2.0.1 and analyzed using Biacore® T200 Evaluation Software version 3.0 (GE Healthcare Life Sciences).

The target in assay [2] is T2, Cyno B7H6-His (cynomolgus monkey).
T2 construct: also called CyB7H6; cyB7-H6
T2 chain: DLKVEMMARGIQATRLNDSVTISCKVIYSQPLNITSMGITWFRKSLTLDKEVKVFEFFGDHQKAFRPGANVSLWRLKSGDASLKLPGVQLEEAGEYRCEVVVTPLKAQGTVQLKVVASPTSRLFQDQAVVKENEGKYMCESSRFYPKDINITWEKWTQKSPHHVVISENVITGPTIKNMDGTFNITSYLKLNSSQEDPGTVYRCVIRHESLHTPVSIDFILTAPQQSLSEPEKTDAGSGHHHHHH
Briefly: SPR, binder captured on Protein A/G, B7H6 analyte. As for the experimental part: (§3) To determine the affinity of human and cyno B7H6 and human B7H1 to B7H6/CD3 binding proteins, the experiment was performed on a Biacore™ 8K instrument (GE Healthcare Life Sciences). Briefly, the B7H6/CD3 binding protein was captured via Protein A/G. The running buffer for this experiment and all serial dilutions were prepared in HBS-EP+. The CM5 sensor chip was activated with an equal mixture of EDC/NHS across both flow cells for 420 s at a flow rate of 10 μL/min and immobilized with recombinant Protein A/G (50 μg/ml in 10 mM NaOAc, pH 4.5) across all flow cells for 420 s at a flow rate of 10 μL/min resulting in about 2500 RU of Protein A/G on the surface. The sensor chip was deactivated with 1M ethanolamine-HCl across all flow cells for 420 s at a flow rate of 10 μL/min.
(§4) About 700 RU of the B7H6/CD3 binding protein was captured on flow cell 2 of the Protein A/G surface for 60 s at a flow rate of 10 μL/min. The analytes HuB7H6, CyB7H6 and HuB7H1 were injected across both flow cells over captured B7H6/CD3 binding protein for 300 s at a flow rate of 30 μL/min with a dissociation of 1200 s. The concentrations of HuB7H6 and CyB7H6 were 0 nM, 6.25 nM, 12.5 nM, 25 nM, 50 nM and 100 nM. The concentrations of HuB7H1 were 0 nM and 1 μM. The surface was regenerated by injecting 10 mM glycine-HCl, pH 1.5 for 20 s at a flow rate of 30 μL/min across both flow cells.
(§5) The reference flow cell 1 (interactions with sensor surface) and blank (HBS-EP+ or 0 nM analyte) were subtracted from the raw data.
In general terms: In SPR one partner is held on a chip, and binding of the other changes the refractive index at the surface.

The target of assay [3] is T2, Cyno B7H6-His. Briefly: ratio of SPR KDs cyno/human. The procedure:
as §4, §5
(§6) The B7H6/CD3 binding protein analyte was injected horizontally over the immobilized surface for 300 s at a flow rate of 30 μL/min with a dissociation of 600 s. The concentrations of the B7H6/CD3 binding protein used were 0 nM, 1.2 nM, 3.7 nM, 11.1 nM, 33.3 nM and 100 nM.

The target of another assay is T3, Human B7H1 (human, UniProt Q9NZQ7 20-239).
T3 construct: also called HuB7H1; huB7-H1
T3 sequence (Q9NZQ7 other isoform, or with tags, fused parts or gaps limits assumed): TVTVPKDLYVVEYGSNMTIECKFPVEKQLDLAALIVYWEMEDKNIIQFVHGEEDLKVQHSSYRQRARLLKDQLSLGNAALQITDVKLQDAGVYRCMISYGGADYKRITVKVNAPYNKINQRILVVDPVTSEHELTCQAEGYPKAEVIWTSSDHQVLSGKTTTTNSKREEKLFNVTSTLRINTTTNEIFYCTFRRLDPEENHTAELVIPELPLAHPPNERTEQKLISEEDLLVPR
Briefly: SPR, binder captured on Protein A/G, HuB7H1 analyte. As for the experimental part: as §3, §4, §5

Another assay concerns the target T4, Human CD3 E+G HuFc-6xHis (human).
T4 construct: also called HuCD3E+G-hFc; huCD3
Description: SPR, CD3E+G-hFc immobilized, binder analyte. As for the experimental part: To determine the affinity of the B7H6/CD3 binding protein to human and cyno CD3E+G-hFc, the experiment was performed on a Bio-Rad ProteOn™ XPR36 instrument. Briefly, HuCD3E+G-hFc and CyCD3E+G were amine-coupled on a ProteOn™ GLM sensor chip (Bio-Rad) and the B7H6/CD3 binding protein was flowed over the immobilized surface. The running buffer for this experiment and all serial dilutions were prepared in HBS-EP+. The GLM sensor chip was normalized according to Bio-Rad's recommendations. The sensor chip was activated with an equal mixture of EDC/s-NHS in the horizontal direction for 300 s at a flow rate of 30 μL/min HuCD3E+G-hFc was immobilized in the vertical direction at 0.4 μg/mL, 0.2 μg/mL and 0.1 μg/mL in 10 mM acetate pH 4.5 to L1, L2 and L3, respectively, for 300 s at a flow rate of 30 μL/min resulting in about 100 RU of HuCD3E+G-hFc on L1, 40 RU of HuCD3E+G-hFc on L2 and 0 RU of HuCD3E+G-hFc on L3. CyCD3E+G-hFc was immobilized in the vertical direction at 0.4 μg/mL, 0.2 μg/mL and 0.1 μg/mL in 10 mM acetate pH 4.5 to L4, L5 and L6, respectively, for 300 s at a flow rate of 30 μL/min resulting in about 385 RU of […], 170 RU of CyCD3E+G-hFc on L5 and 50 RU of CyCD3E+G-hFc on L6. The sensor chip was deactivated with 1M ethanolamine-HCl in the horizontal direction for 300 s at a flow rate of 30 μL/min.
as §6
The interspot (interactions with sensor surface) and blank (HBS-EP+ or 0 nM analyte) were subtracted from the raw data.

In assay [4] the target is T5, chicken egg white lysozyme (chicken, UniProt P00698 19-147).
T5 construct: unrelated positively charged protein, amine-coupled to the chip; also called Lysozyme (positive)
T5 sequence (P00698 19-147): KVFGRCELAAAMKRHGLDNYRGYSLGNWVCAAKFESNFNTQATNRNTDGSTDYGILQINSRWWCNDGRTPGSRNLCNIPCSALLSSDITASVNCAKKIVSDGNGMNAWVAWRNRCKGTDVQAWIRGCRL
Briefly: SPR, 1 µM binder over immobilized lysozyme. As for the experimental part:
as §1, §2

T4 sequence (chain, as listed by the source limits assumed): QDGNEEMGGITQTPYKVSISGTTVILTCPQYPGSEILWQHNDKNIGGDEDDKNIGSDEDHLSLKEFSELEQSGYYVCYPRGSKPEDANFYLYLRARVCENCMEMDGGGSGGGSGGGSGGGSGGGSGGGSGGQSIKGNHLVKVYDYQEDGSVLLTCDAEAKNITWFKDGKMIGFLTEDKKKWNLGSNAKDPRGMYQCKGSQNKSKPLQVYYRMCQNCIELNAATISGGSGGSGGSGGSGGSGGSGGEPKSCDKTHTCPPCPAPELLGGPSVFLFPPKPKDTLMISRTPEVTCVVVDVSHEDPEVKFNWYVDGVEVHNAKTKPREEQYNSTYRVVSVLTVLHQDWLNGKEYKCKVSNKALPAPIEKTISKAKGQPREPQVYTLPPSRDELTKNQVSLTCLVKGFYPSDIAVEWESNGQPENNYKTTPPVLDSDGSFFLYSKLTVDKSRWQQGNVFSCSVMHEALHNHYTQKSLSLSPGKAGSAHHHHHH
T1 sequence (P01070 25-205): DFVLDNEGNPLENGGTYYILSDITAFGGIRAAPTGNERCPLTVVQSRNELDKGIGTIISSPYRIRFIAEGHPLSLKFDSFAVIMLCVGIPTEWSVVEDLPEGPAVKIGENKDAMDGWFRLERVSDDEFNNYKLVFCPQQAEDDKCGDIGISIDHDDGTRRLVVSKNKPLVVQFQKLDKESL

B1: B7H6#15/CD3#1 (bispecific antibody, human IgG1, kappa, lambda, L234A L235A)
chain 1: DIQMTQSPSSLSASVGDRVTITCKASQNVGKYVAWYQQKPGKAPKSLIYSASNRYDGVPSRFSGSGSGTDFTLTISSLQPEDFTTYYCQQYISYPLTFGAGTKLEIKRTVAAPSVFIFPPSDEQLKSGTASVVCLLNNFYPREAKVQWKVDNALQSGNSQESVTEQDSKDSTYSLSSTLTLSKADYEKHKVYACEVTHQGLSSPVTKSFNRGECGGGGSEGKSSGSGSESKSTEGKSSGSGSESKSTGGGGSQVQLVQSGAEVKKPGASVKVSCKASGYTFTNYWMNWMRQAPGQGLEWMGGIYLSGDSTDYNEKFKGRVTMTVDTSTSTVYMELSSLRSEDTAVYYCTRRGDYFGDFWGQGTLVTVSSASTKGPSVFPLAPSSKSTSGGTAALGCLVKDYFPEPVTVSWNSGALTSGVHTFPAVLQSSGLYSLSSVVTVPSSSLGTQTYICNVNHKPSNTKVDKRVEPKSCDKTHTCPPCPAPEAAGGPSVFLFPPKPKDTLMISRTPEVTCVVVDVSHEDPEVKFNWYVDGVEVHNAKTKPREEQYNSTYRVVSVLTVLHQDWLNGKEYKCKVSNKALPAPIEKTISKAKGQPREPQVYTLPPSREEMTKNQVSLWCLVKGFYPSDIAVEWESNGQPENNYKTTPPVLDSDGSFFLYSKLTVDKSRWQQGNVFSCSVMHEALHNHYTQKSLSLSPG
chain 2: EAVVTQEPSLTVSPGGTVTLTCRSSTGAVTTSNYANWVQEKPGQLPRGLIGGTNKRAPWVPARFSGSLLGGKAALTLSGAQPEDEAEYFCALWYSNLWVFGGGTKLTVLGQPKAAPSVTLFPPSSEELQANKATLVCLISDFYPGAVKVAWKADGSPVNTGVETTTPSKQSNNKYAASSYLSLTPEQWKSHRSYSCQVTHEGSTVEKTVAPAECSGGGGSEGKSSGSGSESKSTEGKSSGSGSESKSTGGGGSEVQLVESGGGLVQPGGSLKLSCAASGFTFNTYAMNWVRQAPGKGLEWVARIRSKYNNYATYYADSVKDRFTISRDDSKNTAYLQMNNLKTEDTAVYYCVRHGNFGNSYVSWFAYWGQGTLVTVSAASTKGPSVFPLAPSSKSTSGGTAALGCLVKDYFPEPVTVSWNSGALTSGVHTFPAVLQSSGLYSLSSVVTVPSSSLGTQTYICNVNHKPSNTKVDKRVEPKSCDKTHTCPPCPAPEAAGGPSVFLFPPKPKDTLMISRTPEVTCVVVDVSHEDPEVKFNWYVDGVEVHNAKTKPREEQYNSTYRVVSVLTVLHQDWLNGKEYKCKVSNKALPAPIEKTISKAKGQPREPQVYTLPPSREEMTKNQVSLSCAVKGFYPSDIAVEWESNGQPENNYKTTPPVLDSDGSFFLVSKLTVDKSRWQQGNVFSCSVMHEALHNRFTQKSLSLSPG
notes: scFab-Fc heterodimer, one B7H6 chain and one CD3 chain
As to B1, the figures for the “Non-specific binding (RU)” value in assay [1] and in assay [4] were 32.8 RU and 7.2 RU, respectively. The dissociation constant Kd in the assay with Cyno B7H6-His [2] was 2.2 nM; in the assay with Human CD3 E+G HuFc-6xHis it was 3.8 nM. In the assay with Cyno B7H6-His [3], the “cy/hu B7-H6” value stood at 2.8. Besides, the binding result with Human B7H1 was “no binding (tested: 1 µM)”.

B2: B7H6#16/CD3#1 (bispecific antibody, human IgG1, kappa, lambda, L234A L235A)
chain 1: DIQMTQSPSSLSASVGDRVTITCKASQNVGKYVAWYQQKPGKAPKSLIYSASNRYDGVPSRFSGSGSGTDFTLTISSLQPEDFTTYYCQQYISYPLTFGAGTKLEIKRTVAAPSVFIFPPSDEQLKSGTASVVCLLNNFYPREAKVQWKVDNALQSGNSQESVTEQDSKDSTYSLSSTLTLSKADYEKHKVYACEVTHQGLSSPVTKSFNRGECGGGGSEGKSSGSGSESKSTEGKSSGSGSESKSTGGGGSQVQLVQSGAEVKKPGASVKVSCKASGYTFTSYWMNWMRQAPGQGLEWMGGIYLSGESTDYNEKFKGRVTMTVDTSTSTVYMELSSLRSEDTAVYYCTRRGDYFGDFWGQGTLVTVSSASTKGPSVFPLAPSSKSTSGGTAALGCLVKDYFPEPVTVSWNSGALTSGVHTFPAVLQSSGLYSLSSVVTVPSSSLGTQTYICNVNHKPSNTKVDKRVEPKSCDKTHTCPPCPAPEAAGGPSVFLFPPKPKDTLMISRTPEVTCVVVDVSHEDPEVKFNWYVDGVEVHNAKTKPREEQYNSTYRVVSVLTVLHQDWLNGKEYKCKVSNKALPAPIEKTISKAKGQPREPQVYTLPPSREEMTKNQVSLWCLVKGFYPSDIAVEWESNGQPENNYKTTPPVLDSDGSFFLYSKLTVDKSRWQQGNVFSCSVMHEALHNHYTQKSLSLSPG
chain 2: EAVVTQEPSLTVSPGGTVTLTCRSSTGAVTTSNYANWVQEKPGQLPRGLIGGTNKRAPWVPARFSGSLLGGKAALTLSGAQPEDEAEYFCALWYSNLWVFGGGTKLTVLGQPKAAPSVTLFPPSSEELQANKATLVCLISDFYPGAVKVAWKADGSPVNTGVETTTPSKQSNNKYAASSYLSLTPEQWKSHRSYSCQVTHEGSTVEKTVAPAECSGGGGSEGKSSGSGSESKSTEGKSSGSGSESKSTGGGGSEVQLVESGGGLVQPGGSLKLSCAASGFTFNTYAMNWVRQAPGKGLEWVARIRSKYNNYATYYADSVKDRFTISRDDSKNTAYLQMNNLKTEDTAVYYCVRHGNFGNSYVSWFAYWGQGTLVTVSAASTKGPSVFPLAPSSKSTSGGTAALGCLVKDYFPEPVTVSWNSGALTSGVHTFPAVLQSSGLYSLSSVVTVPSSSLGTQTYICNVNHKPSNTKVDKRVEPKSCDKTHTCPPCPAPEAAGGPSVFLFPPKPKDTLMISRTPEVTCVVVDVSHEDPEVKFNWYVDGVEVHNAKTKPREEQYNSTYRVVSVLTVLHQDWLNGKEYKCKVSNKALPAPIEKTISKAKGQPREPQVYTLPPSREEMTKNQVSLSCAVKGFYPSDIAVEWESNGQPENNYKTTPPVLDSDGSFFLVSKLTVDKSRWQQGNVFSCSVMHEALHNRFTQKSLSLSPG
notes: as for B1
With B2, the entries for the “Non-specific binding (RU)” value in assay [1] and in assay [4] were 42.6 RU and 8.2 RU, respectively. Moreover, the Kd with Cyno B7H6-His [2] was 7.2 nM; in the assay with Human CD3 E+G HuFc-6xHis, 3.7 nM. The “cy/hu B7-H6” value with Cyno B7H6-His [3] worked out at 2.3. Besides, in the assay with Human B7H1, the binding result was “no binding (tested: 1 µM)”.

For orientation: Kd means the concentration at which binding is half-saturated. Read a high Kd as lower affinity.
